Experimental data from patent publication US20260232732A1 (FUNDACI INSTITUT DE RECERCA CONTRA LA LEUC MIA JOSEP …, published 2026).
Where no end group is shown, it is not given here. The star is where a group is joined. Biotin = O=C1N[C@H]2[C@H](CS[C@H]2CCCCC(=O)*)N1

Key:
[1] = target: T1, biotin-peptide SMEDYVNFNF (human); experiment: ELISA biotin-peptide; scFv 10 ug/mL; repII
T1 peptide: Biotin-SMEDYVNFNF
Description: (§1) The peptides were synthesized naked or with a N-terminal Biotin modification with a purity of >98%. All four scFvs were verified by ELISA that can be detected with anti-His antibodies. ELISA was performed for scFv-peptide binding validation. Briefly, naked peptides were coated (50 μg/mL) in 0.58M carbonate-bicarbonate buffer pH9.5, 100 μL/well, 4° C. O/N. Then after blocking (3% BSA-PBS, 300 μL/well 37° C. 1.5 h) and washing (PBS+Tween-20 0.05% v/v (0.05% PBST), wells were incubated with each purified scFv antibody at concentration of 1 μg/mL in PBS at 37° C. 1 h. After washing (0.05% PBST), wells were incubated with secondary antibodies (goat anti-His IgG-HRP) in PBS, 37° C., 30 min. After washing, and incubation with TMB substrate, reactions were stopped with 2M HCl and reading was quantified at OD450.
(§2) ELISA with biotin-conjugated peptides (5 μg/mL) was performed very similar to described above with minor modifications.

[2] = target: T2, biotin-peptide MEDYVNFNFT (human); experiment: ELISA biotin-peptide; scFv 10 ug/mL; repII
T2 peptide: Biotin-MEDYVNFNFT
Description: as §1, §2

[3] = target: T3, naked peptide 1a MTPTDFTSPIPNMADDYGSESTSS (human); experiment: ELISA naked 24-mer; repI
T3 construct: also called region 1-24
T3 peptide: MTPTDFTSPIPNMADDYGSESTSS

[4] = target: T4, naked peptide 1b MEDYVNFNFTDFYCEKNNVRQFAS (human); experiment: ELISA naked 24-mer; repI
T4 construct: also called region amino acids 25 to 48
T4 peptide: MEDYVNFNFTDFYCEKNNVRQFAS

[5] = target: T5, naked peptide TSPIPNMADD (human); experiment: ELISA naked peptide; scFv 1 ug/mL; repI
T5 peptide: TSPIPNMADD
Description: as §1
(§3) Then a library of overlapping peptides were designed and constructed separately to produce 16 different peptides, covering full antigen sequence of total 48 aa. Peptide size was 10aa, with 7aa overlapping and ELISA screening of scFv against each peptide was performed in duplicate. Screening was performed using naked peptides in a standard plate or biotinylated peptides using avidin-plates.

[6] = target: T6, naked peptide MTPTDFTSPI (human); experiment: ELISA naked peptide; scFv 1 ug/mL; repI
T6 peptide: MTPTDFTSPI
Description: as §1, §3

[7] = target: T7, naked peptide MADDYGSEST (human); experiment: ELISA naked peptide; scFv 1 ug/mL; repI
T7 peptide: MADDYGSEST
Description: as §1, §3

[8] = target: T8, naked peptide TDFYCEKNNV (human); experiment: ELISA naked peptide; scFv 1 ug/mL; repI
T8 peptide: TDFYCEKNNV
Description: as §1, §3

[9] = target: T9, naked peptide SSMEDYVNFN (human); experiment: ELISA naked peptide; scFv 1 ug/mL; repII
T9 peptide: SSMEDYVNFN
Description: as §1, §3

[10] = target: T10, naked peptide SMEDYVNFNF (human); experiment: ELISA naked peptide; scFv 1 ug/mL; repII
T10 peptide: SMEDYVNFNF
Description: as §1, §3

[11] = target: T11, naked peptide YVNFNFTDFY (human); experiment: ELISA naked peptide; scFv 1 ug/mL; repII
T11 peptide: YVNFNFTDFY
Description: as §1, §3

[12] = target: T5, naked peptide TSPIPNMADD; experiment: ELISA naked peptide; scFv 1 ug/mL; repII
Description: as §1, §3

[13] = target: T6, naked peptide MTPTDFTSPI; experiment: ELISA naked peptide; scFv 1 ug/mL; repII
Description: as §1, §3

[14] = target: T12, naked peptide DYGSESTSSM (human); experiment: ELISA naked peptide; scFv 1 ug/mL; repII
T12 peptide: DYGSESTSSM
Description: as §1, §3

[15] = target: T13, naked peptide TDFTSPIPNM (human); experiment: ELISA naked peptide; scFv 1 ug/mL; repII
T13 peptide: TDFTSPIPNM
Description: as §1, §3

[16] = target: T14, naked peptide KNNVRQFAS (human); experiment: ELISA naked peptide; scFv 1 ug/mL; repII
T14 peptide: KNNVRQFAS
Description: as §1, §3

[17] = target: T15, naked peptide FNFTDFYCEK (human); experiment: ELISA naked peptide; scFv 1 ug/mL; repII
T15 peptide: FNFTDFYCEK
Description: as §1, §3

[18] = target: T16, naked peptide YCEKNNVRQF (human); experiment: ELISA naked peptide; scFv 1 ug/mL; repII
T16 peptide: YCEKNNVRQF
Description: as §1, §3

[19] = target: T7, naked peptide MADDYGSEST; experiment: ELISA naked peptide; scFv 1 ug/mL; repII
Description: as §1, §3

[20] = target: T8, naked peptide TDFYCEKNNV; experiment: ELISA naked peptide; scFv 1 ug/mL; repII
Description: as §1, §3

[21] = target: T17, naked peptide IPNMADDYGS (human); experiment: ELISA naked peptide; scFv 1 ug/mL; repII
T17 peptide: IPNMADDYGS
Description: as §1, §3

[22] = target: T18, naked peptide MEDYVNFNFT (human); experiment: ELISA naked peptide; scFv 1 ug/mL; repII
T18 peptide: MEDYVNFNFT
Description: as §1, §3

[23] = target: T19, naked peptide SESTSSMEDY (human); experiment: ELISA naked peptide; scFv 1 ug/mL; repII
T19 peptide: SESTSSMEDY
Description: as §1, §3

[24] = target: T20, naked peptide TSSMEDYVNF (human); experiment: ELISA naked peptide; scFv 1 ug/mL; repII
T20 peptide: TSSMEDYVNF
Description: as §1, §3

[25] = target: T21, Pep1-48, N-terminal domain 1 of CCR9, amino acids 1 to 48 (human); experiment: BLI, scFv on NTA biosensor, 1:1 global fit
T21 construct: Chemically synthesized (Genscript), purity >75%; also called CCR9 N-terminal 1-48 peptide
T21 peptide: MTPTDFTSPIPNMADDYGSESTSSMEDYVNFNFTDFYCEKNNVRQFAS
Description: The affinity between the CCR9-N-terminal domain 1 of CCR9 and the different scFvs was determined by Bio-Layer Interferometry (BLI), a technique that allows quantitative and qualitative measurement of biomolecular interactions in real-time. Briefly, scFv were immobilized onto NTA Biosensor (Sartorius) and quantification was performed in an Octet RED384 (Sartorius). scFv were dissolved in PBS (150 mM NaCl, 38 mM Na2HPO4, 12 mM NaH2PO4, pH 7.2) and a buffer containing 0.03% Tween-20 in PBS, pH 7.2 was used for baseline steps.

Binder	OD450 [1] [OD]	OD450 [2] [OD]	OD450 [3] [OD]	OD450 [4] [OD]	OD450 [5] [OD]	OD450 [6] [OD]	OD450 [7] [OD]	OD450 [8] [OD]	OD450 [9] [OD]	OD450 [10] [OD]	OD450 [11] [OD]	OD450 [12] [OD]	OD450 [13] [OD]	OD450 [14] [OD]	OD450 [15] [OD]	OD450 [16] [OD]	OD450 [17] [OD]	OD450 [18] [OD]	OD450 [19] [OD]	OD450 [20] [OD]	further results
Comparative antibody 2 (Comp-2) scFv, 243LO326 (VH SEQ ID NO: 51 and VL SEQ ID NO: 52 of WO 2022/195028 A2), His-tagged (scFv) scFv: QVQLVQSGAEVKKPGASVKVSCKASGYTFTSYWMHWVRQAPGQGLEWIGVIYPGNSDTRYNQKFKGRVTITRDTSASTAYMELSSLRSEDTAVYYCTRDYYSNYVYYYAMDYWGQGTTVTVSSGGGGSGGGGSGGGGSGGGGSDIVMTQTPLSLPVTPGEPASISCRSSQSLVHPNRNTYLHWYLQKPGQSPQLLIYKVSNRFSGVPDRFSGSGSGTDFTLKISRVEAEDVGVYYCSQSTHVPWTFGQGTKLEIKHHHHHH	0.05	0.08	0.09	1.97	0.02	0.03	0.02	0.03	0.09	0.03	0.01	0.02	0.03	0.02	0.05	0.04	0.03	0.07	0.02	0.03	OD450 [21]: 0.02 OD; OD450 [22]: 0.04 OD; OD450 [23]: 0.02 OD; OD450 [24]: 0.03 OD; Kd [25]: 61.4 nM; koff [25]: 0.0152 s⁻¹; kon [25]: 248000 M⁻¹ s⁻¹
Comparative antibody 1 (Comp-1) scFv, SEQ ID NO: 10 from WO2023/037125 A1, His-tagged (scFv) scFv: QVQLKESGPGLVQPSQTLSLTCTVSGFSVASYDMHWVRLPPGKGLEWMGIIWANGNTHYNSGLKSRLSISRDTSKSQVFLKMNSLQTEDTAIYFCTRGGFAYWGQGTLVTVSSGGGGSGGGGSGGGGSGGGGSDVVMTQTPVSLSVSLGGQVSISCRSSQSLVHNNGNTYLSWYLQKPGQSPQLLIYKVSNRFSGVSDRFSGSGSGTDFTLKISRVEPDDLGVYYCGQGTQYPTFGGGTKLELKHHHHHH	0.1	0.14	0.08	0.09	0.05	0.05	0.02	0.03	0.09	0.02	0.04	0.05	0.04	0.02	0.06	0.02	0.02	0.04	0.02	0.03	OD450 [21]: 0.01 OD; OD450 [22]: 0.06 OD; OD450 [23]: 0.04 OD; OD450 [24]: 0.03 OD
